# Assay: soluble on expression in E. coli; label from the status in PepcDB or PDB records
row,Sequence,soluble on expression in E. coli
1,MSSSSPNSSRSEAVNGRVVVPTGGSRRENSGPARGPAGFSATVLPCDEATKAAFAKDWKDLEQENLSSADYYFNSYAHFGIHEEMIKDSVRTGCYQRAICQNAHLFANKVVLDVGSGTGILSLFAAKAGAKHVYGIECSEIVNIARKIVKENDMEDKVTFVQGKAEEVSLPVEKVDIIISEWMGYFLLYESMLDTVLFCRDKWLKPGGMIFPDKAALYVAAIEDADYKEEKIGYWGNVYGFNFSCVRRCVMEEPIVDTVDENAVSTTSCCVLKLDLLTCTKEDLDFCAPYEITLRRKDFLHAFIAWFDVWFSHCHKPVVLSTGPHCRYTHWKQTVFYMEDVLVADVGDKVEGMIAVKKSQKNPRDLDIKISYTFNPPHAPAAIENTQFYRLR,soluble
2,MSTAETAVAPVDYRTDPSQYKHWKLSFNGPVATLGIDIAEDGGIRDGYKLKLNSYDLGVDIELHDAIQRIRFEHPEVRTVVLTSLKDRVFCSGANIFMLGLSTHAWKVNFCKFTNETRNGLEDSSRHSGLKFLAAVNGACAGGGYELALACDEIYLVDDRSSSVSLPEVPLLGVLPGTGGLTRVTDKRKVRHDRADIFCTVVEGVRGERAKAWRLVDEVVKPNQFDQAIQARALELAAQSDRPAHAQGVPLTRIERTDREDGLTYKTLDVTIDRAKRIATFTAKAPQTEPPASIDAIVAAGANWWPLKFAREFDDAILSMRTNELAVGTWVFRTEGDARHLLAADASLMQHKDHWFVRETIGLLRRTLARIDVSSRSLFALIEPGSCFAGTFAELAFAADRTYMAALPANEDEEPAITLSEVNFGLYPMVTHQSRLARRFYEETEPLDAVRSRIGQAIKPVEAERLGLVTASPDDIDWADEIRIALEERAAMSPDALTGLEANLRFNGPETMETRIFGRLTAWQNWIFNRPNAVGEKGALKVYGKGSKAQFDVSRV,soluble
3,MSTAINSVEMSLSADEIRERVRAAGVVGAGGAGFPAHVKLQAQVEIFLVNAAECEPMLKVDQQLMWQQAARLVRGVQYAMTATGAREGVIALKEKYRRAIDALTPLLPDGIRLHILPDVYPAGDEVLTIWMATGRRVAPAALPASVGVVVNNVQTVLNIARAVEQRFPVTRRTLTVNGAVARPLTVTVPIGMSLREVLALAGGATVDDPGFINGGPMMGGLITSLDNPVTKTTGGLLVLPKSHPLIQRRMQDERTVLSVARTVCEQCRLCTDLCPRHLIGHELSPHLLVRAVNFHQAATPQLLLSALTCSECNVCESVACPVGISPMRINRMLKRELRAQNQRYEGPLNPADEMAKYRLVPVKRLIAKLGLSPWYQEAPLVEEEPSVEKVTLQLRQHIGASAVANVAVGERVTRGQCVADVPPGALGAPIHASIDGVVSAISEQAITVVRGLEHHHHHH,soluble
4,MSTDLRALLEQARQQGDYTALLEQIPYAKLIGIECTQLGDELLFRLPANKDNIGNPLLPALHGGVIAGFMELAAALHLLILTGSPGVPKIIDFSLDYLRAGQFRDTFARCQVCRQGRRVANVAITAWQSTAEESIATARAHFKIEESTGPLEHHHHHH,soluble
5,MSTEIKTLKPQAVWEYFYDLTQIPRPTGQMDEVTKYVFDFGKRLGLETEQDEVGNVIIRKPATPGMENKPIVTLQSHLDMVPQKNSDIDHDFTKDPIDAYIDGEWVKARG,not soluble
6,MSTEKLEASEEPQAPLANTSETNSIKGDTENIVTVFDLANEIEKSLKDVQRQMKENDDEFSRSIQAIEDKLNKMSR,not soluble
7,MSTGANLLVMNDTCKSNRWWKTKQEKKHSEIKKVKTLKSTWDKKMELKAKKDMVKRVQDNIREKQVQERQEKKERKVEQEKRRLENERKAEIVQKITKIHKLKKTKKRQLRSIQMRDTTQVTK,not soluble
8,MSTKADNRHLYLKVIERIKEDIKNGIYTEKEKLPSEFELSKKLGVSRATLREALRILEEEHVIIRRHGVGTFVHSKPLFLSGIEQLNSVTKMIEQANMTPGTIFLSSQVLMPSEDDTKRFHLAEGQELFYLERVRTADGQPIVYCIDKIPMNILPNSFSHQQESMFDLLEKNSGSVISYAVTDIEPIGYHDTISPVLECDPETALLLLKQTHYDQHDKPVLYSLNYFRADKFRFHVLRKRF,not soluble

# Reference: the DeepSol protein solubility set
